Assay [1] addresses T1, IRTA-3, full length transmembrane form with N-terminal myc tag, on transfected CHO cells (human, UniProt Q96P31 18-734).
T1 construct: also called CHO cells transfected with IRTA-3; human IRTA-3; not shown: myc tag at the N-terminus
T1 sequence: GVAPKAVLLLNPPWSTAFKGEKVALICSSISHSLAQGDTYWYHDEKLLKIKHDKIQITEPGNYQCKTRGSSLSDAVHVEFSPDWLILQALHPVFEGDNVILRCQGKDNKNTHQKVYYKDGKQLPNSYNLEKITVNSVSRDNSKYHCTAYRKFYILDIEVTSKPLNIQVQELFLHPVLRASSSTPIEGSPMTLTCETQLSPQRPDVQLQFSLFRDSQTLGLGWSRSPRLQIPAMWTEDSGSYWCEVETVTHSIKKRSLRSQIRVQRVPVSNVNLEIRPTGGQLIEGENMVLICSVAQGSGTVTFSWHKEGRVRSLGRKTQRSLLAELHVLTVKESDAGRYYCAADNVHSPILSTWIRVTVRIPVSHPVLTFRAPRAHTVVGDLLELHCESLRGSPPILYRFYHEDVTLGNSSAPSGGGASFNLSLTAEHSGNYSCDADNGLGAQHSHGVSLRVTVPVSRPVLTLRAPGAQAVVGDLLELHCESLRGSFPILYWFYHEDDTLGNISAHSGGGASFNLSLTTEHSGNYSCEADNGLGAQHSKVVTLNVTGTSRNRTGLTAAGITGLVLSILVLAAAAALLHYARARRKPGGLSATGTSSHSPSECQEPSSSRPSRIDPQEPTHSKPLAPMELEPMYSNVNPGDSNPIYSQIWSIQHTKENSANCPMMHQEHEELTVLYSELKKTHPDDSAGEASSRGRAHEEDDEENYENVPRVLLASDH
In words: flow cytometry on CHO cells transfected with myc-tagged IRTA-3; PE-labeled anti-human IgG. An excerpt:
(§1) Chinese hamster ovary (CHO) cell lines that express either the IRTA-2, IRTA-3 or IRTA-4 protein at the cell surface were developed and used to determine the specificity of the IRTA-2 monoclonal antibodies by flow cytometry. CHO cells were transfected with expression plasmids containing full length cDNA encoding transmembrane forms of IRTA-2, IRTA-3, or IRTA-4. In addition, the transfected proteins contained a myc tag at the N-terminus for detection by anti-myc antibody. Binding of the two anti-IRTA-2 monoclonal antibodies was assessed by incubating the transfected cells with each of the IRTA-2 Abs at a concentration of 10 μg/ml. The cells were washed and binding was detected with a phycoerythrin-labeled anti-human IgG Ab. A murine anti-myc Ab followed by labeled anti-murine IgG was used as the positive control. Secondary antibody alone was used as a negative control. The results are depicted in FIGS. 7A-C. The IRTA-2 monoclonal antibodies 9D12 and 8A1 bound to the CHO line transfected with IRTA-2 but not to CHO lines expressing IRTA-3 or -4, as measured by the mean fluorescent intensity (MFI) of staining.

In assay [2] the target is T2, IRTA-4, full length transmembrane form with N-terminal myc tag, on transfected CHO cells (human, UniProt Q96LA5 20-508).
T2 construct: also called CHO cells transfected with IRTA-4; human IRTA-4; not shown: myc tag at the N-terminus
T2 sequence: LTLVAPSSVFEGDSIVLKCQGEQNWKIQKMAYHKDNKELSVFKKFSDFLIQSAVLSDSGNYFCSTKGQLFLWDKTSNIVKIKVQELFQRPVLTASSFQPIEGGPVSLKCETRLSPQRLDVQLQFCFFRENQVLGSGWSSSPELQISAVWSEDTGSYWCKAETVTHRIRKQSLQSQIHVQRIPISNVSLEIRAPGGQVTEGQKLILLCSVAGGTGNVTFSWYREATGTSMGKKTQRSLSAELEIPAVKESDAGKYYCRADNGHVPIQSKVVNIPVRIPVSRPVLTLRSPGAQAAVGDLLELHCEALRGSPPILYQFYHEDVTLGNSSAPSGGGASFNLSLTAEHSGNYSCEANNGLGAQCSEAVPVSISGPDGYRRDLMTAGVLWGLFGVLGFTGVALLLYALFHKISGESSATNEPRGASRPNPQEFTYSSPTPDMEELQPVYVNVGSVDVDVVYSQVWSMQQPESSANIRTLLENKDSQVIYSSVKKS
Briefly: flow cytometry on CHO cells transfected with myc-tagged IRTA-4; PE-labeled anti-human IgG.
Text: as §1
(In flow cytometry, cells or beads pass a laser one at a time.)

Assay [3] addresses T3, IRTA-2-Fc antigen (fusion protein composed of the extracellular domain of the IRTA-2 linked to the Fc portion … (human, UniProt Q96RD9 16-851)).
T3 construct: not shown: Fc portion of human IgG1
T3 chain: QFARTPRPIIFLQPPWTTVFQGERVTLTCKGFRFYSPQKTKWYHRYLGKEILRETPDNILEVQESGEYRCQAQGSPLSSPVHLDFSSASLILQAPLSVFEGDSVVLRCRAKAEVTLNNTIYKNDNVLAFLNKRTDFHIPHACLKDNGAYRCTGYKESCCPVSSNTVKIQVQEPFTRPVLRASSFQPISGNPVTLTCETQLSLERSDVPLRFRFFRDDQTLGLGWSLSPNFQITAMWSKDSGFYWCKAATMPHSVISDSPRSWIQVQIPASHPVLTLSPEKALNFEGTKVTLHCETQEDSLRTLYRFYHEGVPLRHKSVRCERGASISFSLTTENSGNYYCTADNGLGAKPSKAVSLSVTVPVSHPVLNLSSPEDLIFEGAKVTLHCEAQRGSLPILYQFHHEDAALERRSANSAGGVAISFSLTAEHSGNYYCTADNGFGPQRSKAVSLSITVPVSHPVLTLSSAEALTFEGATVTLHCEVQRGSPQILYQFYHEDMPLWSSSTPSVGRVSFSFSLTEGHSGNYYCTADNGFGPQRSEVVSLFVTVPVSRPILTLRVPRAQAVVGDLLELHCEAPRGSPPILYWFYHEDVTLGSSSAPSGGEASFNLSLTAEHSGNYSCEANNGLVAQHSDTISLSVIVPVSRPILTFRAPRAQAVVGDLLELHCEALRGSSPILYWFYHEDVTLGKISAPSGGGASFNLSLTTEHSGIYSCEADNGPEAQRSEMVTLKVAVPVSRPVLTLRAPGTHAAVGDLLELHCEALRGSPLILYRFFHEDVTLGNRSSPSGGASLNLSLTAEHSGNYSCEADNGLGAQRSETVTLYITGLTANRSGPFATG
In words: Biacore SPR, antibody captured by anti-human IgG on CM5 chip, IRTA-2-Fc flowed at 50-400 nM, 1:1 Langmuir fit. Here is the method: Anti-IRTA-2 antibodies were characterized for affinities and binding kinetics by Biacore analysis (Biacore AB, Uppsala, Sweden). Purified anti-IRTA-2 monoclonal antibodies were captured by anti-human IgG antibody covalently linked to a CM5 chip (carboxy methyl dextran coated chip) via primary amines, using standard amine coupling chemistry and kit provided by Biacore. Binding was measured by flowing the IRTA-2-Fc antigen (a fusion protein composed of the extracellular domain of the IRTA-2 linked to the Fc portion of human IgG1) in HBS EP buffer (provided by Biacore AB) at concentrations of 400, 300, 200, 100, and 50 nM at a flow rate of 12 μl/min. The antigen-antibody association kinetics was followed for either 20 minutes (for 8A1) or 5 minutes (for 9D12) and the dissociation kinetics was followed for ether 10 minutes (for 8A1) or 5 minutes (for 9D12). The association and dissociation curves were fit to a 1:1 Langmuir binding model using BIAevaluation software (Biacore AB).
For orientation: SPR reads the build-up and loss of mass on a sensor chip optically.

The target in assay [4] is T4, IRTA-2, full length transmembrane form with N-terminal myc tag, on transfected CHO cells (human, UniProt Q96RD9 16-977).
T4 construct: also called CHO cells transfected with IRTA-2; human IRTA-2; not shown: myc tag at the N-terminus
T4 chain: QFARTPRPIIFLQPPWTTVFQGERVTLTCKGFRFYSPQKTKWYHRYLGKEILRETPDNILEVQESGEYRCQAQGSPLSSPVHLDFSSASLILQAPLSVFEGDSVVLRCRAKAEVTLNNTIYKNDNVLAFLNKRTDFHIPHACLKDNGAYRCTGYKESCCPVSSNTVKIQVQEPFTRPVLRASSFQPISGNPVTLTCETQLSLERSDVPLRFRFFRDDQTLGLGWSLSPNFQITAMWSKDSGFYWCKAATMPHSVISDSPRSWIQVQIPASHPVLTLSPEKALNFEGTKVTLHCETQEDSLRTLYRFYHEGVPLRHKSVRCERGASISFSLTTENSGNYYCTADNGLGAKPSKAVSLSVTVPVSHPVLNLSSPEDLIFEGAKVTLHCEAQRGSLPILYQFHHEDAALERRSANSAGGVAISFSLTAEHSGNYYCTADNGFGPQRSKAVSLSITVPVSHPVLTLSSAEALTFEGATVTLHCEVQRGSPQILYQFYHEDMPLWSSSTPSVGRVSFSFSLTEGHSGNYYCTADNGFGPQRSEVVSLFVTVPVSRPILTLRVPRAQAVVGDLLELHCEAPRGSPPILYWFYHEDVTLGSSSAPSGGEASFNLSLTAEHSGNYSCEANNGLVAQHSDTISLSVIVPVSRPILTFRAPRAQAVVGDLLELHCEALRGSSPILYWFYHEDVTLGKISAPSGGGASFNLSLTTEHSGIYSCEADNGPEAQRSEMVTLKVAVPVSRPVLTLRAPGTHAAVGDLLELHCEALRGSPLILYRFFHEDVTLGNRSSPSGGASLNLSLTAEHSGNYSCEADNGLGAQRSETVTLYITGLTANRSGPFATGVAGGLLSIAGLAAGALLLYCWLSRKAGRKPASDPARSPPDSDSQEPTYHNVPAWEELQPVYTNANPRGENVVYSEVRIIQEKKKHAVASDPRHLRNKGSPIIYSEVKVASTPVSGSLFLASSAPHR
Briefly: flow cytometry on CHO cells transfected with myc-tagged IRTA-2; antibody at 10 µg/ml; PE-labeled anti-human IgG.
Text: as §1

B1: 9D12 human monoclonal antibody (antibody, V domains shown)
VH: EVQLLESGGGLVQPGGSLRLSCAASGFTFSSSAMSWVRQAPGKGLEWVSSISGSGDTTYYADSVKGRFTISRDNSKNTLYLQMNSLRVEDAALYYCAANWGAAFDIWGQGTMVTVSS
VL: EIVLTQSPATLSLSPGERATLSCRASQSVSSYLAWYQQKPGQAPRLLIYDASNRATGIPARFSGSGSGTDFTLTISSLEPEDFAVYYCQQRSNWPRWTFGQGTKVEIK
notes: Purified from a hybridoma of a HuMAb Mouse; Human IgG (captured and detected with anti-human IgG) with a kappa light chain (VK L6); also called anti-IRTA-2 HuMAb 9D12
By Kd is commonly meant a measure of binding affinity in units of concentration. A high value points to lower affinity. Broadly, the koff is the first-order rate constant of dissociation. High values mean fast dissociation, low ones slow dissociation. Broadly, the kon is the second-order rate constant of association. A low value points to slower complex formation. For the molecule B1, the binding result in assay [1] is “no binding (tested: 10 µg/ml)”; in assay [2], “no binding (tested: 10 µg/ml)”; in assay [4] it was “binds”. Moreover, the Kd in assay [3] turned out to be 2.1 nM. This molecule also gave an off-rate constant (koff) in assay [3] of 6.9e-05 s⁻¹. Moreover, the association rate constant (kon) in assay [3] was found to be 34000 M⁻¹ s⁻¹.

B2: 8A1 human monoclonal antibody (antibody, V domains shown)
VH: QMQLVQSGAEVKKPGASVKVSCKASGYTFISYDINWVRQATGQGLEWMGWMHPNSGNTGYAQKFQGRVTMTRNTSISTAYMELSSLRSEDTAVYYCARGRGITMVRGGIIYYGMDVWGQGTTVTVSS
VL: AIQLTQSPSSLSASVGDRVTITCRASQGISSALAWYQQKPGKAPKLLIYDASSLESGVPSRFSGSGSGTDFTLTISSLQPEDFATYYCQQFNSYPHTFGQGTKLEIK
notes: Purified from a hybridoma of a KM Mouse; Human IgG (captured and detected with anti-human IgG) with a kappa light chain (VK L18); also called anti-IRTA-2 HuMAb 8A1
With B2, in assay [3], the dissociation constant Kd came out at 20 nM, the koff came to 0.00011 s⁻¹ and the kon was found to be 5800 M⁻¹ s⁻¹.

These data come from patent US20080247944A1 (published 2008).
